Source: patent CN111778218A (SHANDONG KUANHEZHENG BIOTECHNOLOGY MEDICINE CO LTD, dated 2020)

B1: 噬菌体展示的单克隆抗体A9 (antibody, V domains shown)
VH: EVQLLESGGGLVQPGGSLRLSCAASGFTFSSYAMSWVRQAPGKGLEWVSGITNSGSSTSYADSVKGRFTISRDNSKNTLYLQMNSLRAEDTAVYYCAKGTDAFDYWGQGTLVTVSS
VL: DIQMTQSPSSLSASVGDRVTITCRASQSISSYLNWYQQKPGKAPKLLIYAASTLQSGVPSRFSGSGSGTDFTLTISSLQPEDFATYYCQQSNCSPATFGQGTKVEIKR
notes: also called A9抗体
B2: 噬菌体展示的单克隆抗体E11 (antibody, V domains shown)
VH: EVQLLESGGGLVQPGGSLRLSCAASGFTFSSYAMSWVRQAPGKGLEWVSSIDSSGYYTSYADSVKGRFTISRDNSKNTLYLQMNSLRAEDTAVYYCAKNSDSFDYWGQGTLVTVSS
VL: DIQMTQSPSSLSASVGDRVTITCRASQSISSYLNWYQQKPGKAPKLLIYSASYLQSGVPSRFSGSGSGTDFTLTISSLQPEDFATYYCQQYDDGPNTFGQGTKVEIKR
notes: also called E11抗体
B3: 噬菌体展示的单克隆抗体H9 (antibody, V domains shown)
VH: EVQLLESGGGLVQPGGSLRLSCAASGFTFSSYAMSWVRQAPGKGLEWVSDITDNGASTGYADSVKGRFTISRDNSKNTLYLQMNSLRAEDTAVYYCAKSTNTFDYWGQGTLVTVSS
VL: DIQMTQSPSSLSASVGDRVTITCRASQSISSYINWYQQKPGKAPKLLIYDASSLQSGVPSRFSGSGSGTDFTLTISSLQPEDFATYYCQQNSNSPSTFGQGTKVEIKR
notes: also called H9抗体
B4: 噬菌体展示的单克隆抗体F10 (antibody, V domains shown)
VH: EVQLLESGGGLVQPGGSLRLSCAASGFTFSSYAMSWVRQAPGKGLEWVSGIDSAGYYTTYADSVKGRFTISRDNSKNTLYLQMNSLRAEDTAVYYCAKDSDTFDYWGQGTLVTVSS
VL: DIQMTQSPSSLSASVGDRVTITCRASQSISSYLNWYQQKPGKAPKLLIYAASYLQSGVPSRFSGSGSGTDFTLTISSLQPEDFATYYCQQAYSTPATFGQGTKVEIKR
notes: also called F10抗体
B5: 噬菌体展示的单克隆抗体F5 (antibody, V domains shown)
VH: EVQLLESGGGLVQPGGSLRLSCAASGFTFSSYAMSWVRQAPGKGLEWVSTIDSAGNSTTYADSVKGRFTISRDNSKNTLYLQMNSLRAEDTAVYYCAKNDSSFDYWGQGTLVTVSS
VL: DIQMTQSPSSLSASVGDRVTITCRASQSISSYLNWYQQKPGKAPKLLIYSASWLQSGVPSRFSGSGSGTDFTLTISSLQPEDFATYYCQQYSDGPDTFGQGTKVEIKR
notes: also called F5抗体; 噬菌体展示F5抗体

Each binder was assayed against T1, 牛血清白蛋白BSA (牛 (bovine), UniProt P02769 25-607) (assay: phage ELISA, BSA coated at 1 μg/mL).
T1 construct: also called 牛血清蛋白
T1 sequence (P02769 25-607 limits assumed): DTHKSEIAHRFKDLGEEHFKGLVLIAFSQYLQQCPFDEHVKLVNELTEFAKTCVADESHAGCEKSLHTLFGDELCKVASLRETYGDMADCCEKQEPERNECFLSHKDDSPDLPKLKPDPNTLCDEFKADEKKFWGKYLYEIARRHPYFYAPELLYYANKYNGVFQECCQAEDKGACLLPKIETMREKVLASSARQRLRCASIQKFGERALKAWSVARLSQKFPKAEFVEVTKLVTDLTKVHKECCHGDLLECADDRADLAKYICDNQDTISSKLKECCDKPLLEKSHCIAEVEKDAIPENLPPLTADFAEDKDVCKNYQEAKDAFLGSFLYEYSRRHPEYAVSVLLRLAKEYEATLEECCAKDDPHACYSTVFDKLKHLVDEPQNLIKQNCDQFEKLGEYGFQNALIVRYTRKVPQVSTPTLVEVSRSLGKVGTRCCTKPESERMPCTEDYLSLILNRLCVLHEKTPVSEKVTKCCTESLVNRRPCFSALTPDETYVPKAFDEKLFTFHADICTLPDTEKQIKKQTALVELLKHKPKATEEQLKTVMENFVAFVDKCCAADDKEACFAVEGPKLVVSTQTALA
B1: no binding.
B2: no binding.
B3: no binding.
B4: no binding.
B5: no binding.
